Experiments:
[1] = system: thermostabilised SERT mutants SAH6 and SAH7; experiment: Competition binding, statements covering both thermostabilised mutants; set-up: species or system rat; conditions: over SAH6 and SAH7
Description: The samples were incubated for 2 h at 30 °C and then filtered on 96-well glass fibre plates (Millipore) pre-treated with 200 μl of 0.1% polyethyleneimine. The filters were washed three times with 200 μl ice-cold SERT buffer [100 mM NaCl and 20 mM Tris (pH 7.4)], dried for 1 h at 50 °C prior to liquid scintillation counting. Competition binding assays were performed as above, but a range of concentrations of unlabelled ligand was included and a final concentration of 0.2 nM [^125I]RTI55 was used.

[2] = system: T-REx-293 cells expressing SAH6-GFP, SAH7-GFP or SERT-GFP; experiment: [3H]5HT uptake assay in stable T-REx cell lines; assay type: cell-based; conditions: tetracycline-induced stable cell lines, 2 μM [3H]5HT, 25 °C, 3 min
Description: [^3H]5HT was released by rupturing the cells with 2% SDS, which was quantified by liquid scintillation counting.

[3] = Experimental: Thermostability assays usually involved adding the radioligand to detergent-solubilised membrane proteins,[9] but the only detergent that SERT was stable in was digitonin,[34] which is unsuitable for crystallography. Therefore, a different assay where an inhibitor was used to stabilise the transporter was developed. This entailed adding [^125I]RTI55 to the T-REx-SERT cells followed by detergent solubilisation and then the thermostability assay (heating samples at various temperatures for 30 min). The apparent Tm was defined as the temperature where 50% of the transporter still bound the radiolabelled inhibitor (Fig. S2).
The thermostability of detergent-solubilised [^125I]RTI55-bound SERT was determined as previously described for GPCRs.[5,6,8,9] Briefly, cells containing unpurified SERT were incubated with 1 nM [^125I]RTI55 for 30 min on ice, which were then solubilised with detergent on ice for 30 min before incubation at varying temperatures for 30 min. The radioligand bound to the membrane protein was separated from free radioligand by centrifugal gel filtration and the radioligand bound to the eluted transporter measured by liquid scintillation counting.

Molecule	Lower affinity versus wild-type transporter [1]	[3H]5HT transport [2]	Apparent Tm ([3]; [125I]RTI55-bound, solubilised in 0.1% DDM, heated 30 min)	Transporter remaining functional after heating ([3]; single-temperature assay, 28 °C for 30 min)
ibogaine	up to 90 fold	–	–	–
wild-type SERT: rat serotonin transporter, wild type (protein, UniProt P31652 1-630, looked up) Sodium-dependent serotonin …: METTPLNSQKVLSECKDREDCQENGVLQKGVPTTADRAEPSQISNGYSAVPSTSAGDEASHSIPAATTTLVAEIRQGERETWGKKMDFLLSVIGYAVDLGNIWRFPYICYQNGGGAFLLPYTIMAIFGGIPLFYMELALGQYHRNGCISIWRKICPIFKGIGYAICIIAFYIASYYNTIIAWALYYLISSLTDRLPWTSCTNSWNTGNCTNYFAQDNITWTLHSTSPAEEFYLRHVLQIHQSKGLQDLGTISWQLTLCIVLIFTVIYFSIWKGVKTSGKVVWVTATFPYIVLSVLLVRGATLPGAWRGVVFYLKPNWQKLLETGVWVDAAAQIFFSLGPGFGVLLAFASYNKFNNNCYQDALVTSVVNCMTSFVSGFVIFTVLGYMAEMRNEDVSEVAKDAGPSLLFITYAEAIANMPASTFFAIIFFLMLITLGLDSTFAGLEGVITAVLDEFPHIWAKRREWFVLIVVITCVLGSLLTLTSGGAYVVTLLEEYATGPAVLTVALIEAVAVSWFYGITQFCSDVKEMLGFSPGWFWRICWVAISPLFLLFIICSFLMSPPQLRLFQYNYPHWSIVLGYCIGMSSVICIPTYIIYRLISTPGTLKERIIKSITPETPTEIPCGDIRMNAV	–	robust transport	28 °C	approximately 40%
